Measured values reported in US20050261472A1, “Binding moieties for fibrin” (Dyax Corp., priority 1999, published 2005).
Ends that are not written are not given here.

B1: TN7 isolate 8, phage-displayed DGCHYYGTCLH (peptide)
peptide: DGCHYYGTCLH
modifications: not fully specified (bridges); cysteine pairing not given here
notes: Tested as a phage clone; not shown: not specified
B2: TN7 isolate 11, phage-displayed HDCQYYGTCLH (peptide)
peptide: HDCQYYGTCLH
modifications: not fully specified (bridges); cysteine pairing not given here
notes: as for B1
B3: TN7 isolate 3, phage-displayed LPCDYYGTCLD (peptide)
peptide: LPCDYYGTCLD
notes: as for B1
B4: TN7 isolate 2, phage-displayed LSCDYYGTCLR (peptide)
peptide: LSCDYYGTCLR
modifications: not fully specified (bridges); cysteine pairing not given here
notes: as for B1
B5: TN7 isolate 12, phage-displayed FSCWYSLHCHR (peptide)
peptide: FSCWYSLHCHR
modifications: not fully specified (bridges); cysteine pairing not given here
notes: as for B1
B6: TN7 isolate 1, phage-displayed RPCDYYGTCFD (peptide)
peptide: RPCDYYGTCFD
modifications: not fully specified (bridges); cysteine pairing not given here
notes: as for B1
B7: TN7 isolate 9, phage-displayed RSCNYYGTCLH (peptide)
peptide: RSCNYYGTCLH
modifications: not fully specified (bridges); cysteine pairing not given here
notes: as for B1
B8: TN7 isolate 10, phage-displayed RPCNYYGTCLH (peptide)
peptide: RPCNYYGTCLH
modifications: not fully specified (bridges); cysteine pairing not given here
notes: as for B1
B9: TN7 isolate 6, phage-displayed FACHYYGTCLH (peptide)
peptide: FACHYYGTCLH
modifications: not fully specified (bridges); cysteine pairing not given here
notes: as for B1
B10: TN7 isolate 7, phage-displayed LACHYYGTCLH (peptide)
peptide: LACHYYGTCLH
modifications: not fully specified (bridges); cysteine pairing not given here
notes: as for B1
B11: TN7 isolate 4, phage-displayed DPCSYYGTCLH (peptide)
peptide: DPCSYYGTCLH
modifications: not fully specified (bridges); cysteine pairing not given here
notes: as for B1
B12: TN7 isolate 5, phage-displayed LPCSYYGTCLH (peptide)
peptide: LPCSYYGTCLH
modifications: not fully specified (bridges); cysteine pairing not given here
notes: as for B1

Tests used:
fibrin = target: T1, fibrin (Homo sapiens, UniProt P02671+P02675+P02679); test: dried fibrin plate ELISA of phage isolates; type: binding; conditions: phage isolates from TN7 library; symbols not defined
T1 construct: Thrombin cleavage at the Arg16-Arg17 bond in the Ax chains and at the Arg14-Gly15 bond on the BP chains releases fibrinopeptides A and B; host or cells: fibrinogen solution clotted with thrombin in 96-well plates and dried at 37 C
T1 sequence (P02671 36-629 limits assumed): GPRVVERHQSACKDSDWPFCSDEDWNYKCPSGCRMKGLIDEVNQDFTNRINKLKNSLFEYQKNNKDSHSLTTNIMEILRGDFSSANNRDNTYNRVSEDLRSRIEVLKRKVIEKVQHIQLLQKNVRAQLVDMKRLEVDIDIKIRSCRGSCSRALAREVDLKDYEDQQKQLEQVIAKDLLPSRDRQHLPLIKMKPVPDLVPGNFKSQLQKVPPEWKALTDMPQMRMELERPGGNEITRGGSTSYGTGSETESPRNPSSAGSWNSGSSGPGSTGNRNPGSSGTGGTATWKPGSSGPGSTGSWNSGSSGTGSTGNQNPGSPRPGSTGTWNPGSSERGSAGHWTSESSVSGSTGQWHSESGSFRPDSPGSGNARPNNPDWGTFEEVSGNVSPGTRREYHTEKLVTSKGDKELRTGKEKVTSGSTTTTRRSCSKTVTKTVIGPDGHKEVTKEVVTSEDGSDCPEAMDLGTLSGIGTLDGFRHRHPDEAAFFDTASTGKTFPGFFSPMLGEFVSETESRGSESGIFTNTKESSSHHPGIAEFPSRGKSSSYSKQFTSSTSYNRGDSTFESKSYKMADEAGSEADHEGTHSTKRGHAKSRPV
T1 sequence (P02675 45-491 limits assumed): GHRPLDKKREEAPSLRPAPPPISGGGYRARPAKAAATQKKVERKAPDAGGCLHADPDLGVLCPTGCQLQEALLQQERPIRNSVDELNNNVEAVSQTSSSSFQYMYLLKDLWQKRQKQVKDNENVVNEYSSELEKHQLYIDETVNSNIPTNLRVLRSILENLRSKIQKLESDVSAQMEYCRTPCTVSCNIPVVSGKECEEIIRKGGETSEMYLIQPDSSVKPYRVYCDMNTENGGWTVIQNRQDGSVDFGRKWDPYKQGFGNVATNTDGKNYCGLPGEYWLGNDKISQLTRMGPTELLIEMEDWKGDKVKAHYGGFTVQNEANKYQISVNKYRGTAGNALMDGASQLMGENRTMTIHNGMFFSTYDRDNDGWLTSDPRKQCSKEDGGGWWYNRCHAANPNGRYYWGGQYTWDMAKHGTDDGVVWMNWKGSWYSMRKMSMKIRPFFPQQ
T1 sequence (P02679 27-437 isoform P02679-2 limits assumed): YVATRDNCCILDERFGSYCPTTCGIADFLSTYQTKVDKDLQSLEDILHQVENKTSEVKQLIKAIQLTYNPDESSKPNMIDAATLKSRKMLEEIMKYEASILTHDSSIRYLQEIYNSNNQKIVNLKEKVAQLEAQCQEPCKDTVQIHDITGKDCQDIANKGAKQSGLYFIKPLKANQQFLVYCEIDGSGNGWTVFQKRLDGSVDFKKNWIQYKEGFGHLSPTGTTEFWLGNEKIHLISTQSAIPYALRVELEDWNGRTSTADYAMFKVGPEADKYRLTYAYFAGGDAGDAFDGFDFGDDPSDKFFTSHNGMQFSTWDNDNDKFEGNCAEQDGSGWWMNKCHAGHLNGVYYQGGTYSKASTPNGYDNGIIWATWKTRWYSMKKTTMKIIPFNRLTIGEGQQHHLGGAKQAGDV
Method: For screening libraries to isolate binding moieties for fibrin, two fibrin targets, i.e., synthetic fibrin clots and then a soluble fibrin fragment, DD(E), were prepared. To prepare fibrin for screening, dilute fibrin clots were formed in the wells of a 96-well plate, dried down to a thin layer, and then rehydrated prior to library screening. In a typical procedure, a 0.15 mg/ml fibrinogen solution was prepared in TBS buffer (50 mM Tris, 150 mM NaCl, pH 7.4). A solution containing 2 U/ml thrombin, 10 mM CaCl2, and 5 mM ε-aminocaproic acid in TBS was prepared. The fibrinogen solution and thrombin solution were mixed 1:1 in the wells of a 96-well plate, aliquoting 25 μL of each solution in each well (total volume=50 μL). The plates were evaporated to dryness by incubating them at 37° C. overnight. Just before a phage library was added to the dried fibrin target, the fibrin wells were washed three times for 10 minutes with phage blocking buffer (TBS containing 2 mM CaCl2, 0.1% Tween-20, and 0.1% human serum albumin (HSA)).
(§1) After five rounds of selection, the eluted phage were propagated and a portion plated to isolate phage plaques arising from individual clones. Ninety such clones were selected randomly, propagated, and tested individually for binding to fibrin in a dried fibrin plate assay. Dried fibrin plates were prepared as described above for the library screening. Phage samples (˜10^9 phage each) were incubated in the dried fibrin plate wells in binding buffer (50 mM Tris, 150 mM NaCl, 2 mM CaCl2, 0.05% Tween-20) containing 0.1% HSA. After 1 hour, the plates were washed 5 times with binding buffer. Anti-M13 antibody conjugated to horseradish peroxidase (Pharmacia) was added at 1/5000 dilution in binding buffer to the wells and incubated with the fibrin for 1 hour. The wells were again washed 5 times with binding buffer and the presence of the antibody/phage/fibrin complex was measured with HRP calorimetric reagents (3,3′,5,5′-tetrarnethylbenzidine (TMB) and H2O2). A high absorbance at 595 nm (due to oxidized TMB) was indicative of a tight phage/fibrin interaction, and phage clones corresponding to those wells were identified as bearing fibrin-binding moieties.
The amino acid sequence data from these phage isolates were sorted according to the degree of similarity and response in the fibrin ELISA assay.

human serum albumin = target: T2, human serum albumin (human, UniProt P02768 25-609); test: phage ELISA on immobilised HSA
T2 construct: also called HSA
T2 sequence (P02768 25-609 limits assumed): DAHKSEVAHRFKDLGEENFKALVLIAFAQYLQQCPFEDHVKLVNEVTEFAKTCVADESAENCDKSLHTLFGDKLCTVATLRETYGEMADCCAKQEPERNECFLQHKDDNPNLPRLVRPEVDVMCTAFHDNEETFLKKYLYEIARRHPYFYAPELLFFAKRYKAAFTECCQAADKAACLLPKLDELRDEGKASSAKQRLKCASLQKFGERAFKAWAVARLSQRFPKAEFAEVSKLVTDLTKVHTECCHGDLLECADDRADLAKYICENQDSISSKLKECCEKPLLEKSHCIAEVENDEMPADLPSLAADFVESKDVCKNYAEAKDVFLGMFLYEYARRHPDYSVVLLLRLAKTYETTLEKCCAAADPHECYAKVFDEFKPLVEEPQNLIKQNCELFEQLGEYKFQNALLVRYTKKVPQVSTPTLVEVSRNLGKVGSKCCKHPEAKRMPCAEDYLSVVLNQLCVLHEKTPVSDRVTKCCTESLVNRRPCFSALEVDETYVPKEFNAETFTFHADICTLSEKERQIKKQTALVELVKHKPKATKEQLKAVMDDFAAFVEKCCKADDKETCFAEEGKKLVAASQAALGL
Method: as §1, with “(˜10⁹” for “(˜10^9”, “CaCl₂,” for “CaCl2,”, “H₂O₂).” for “H2O2).”
(§2) These fibrin-binding positive clones were subjected to several secondary ELISA assays. These assays followed a similar protocol to that detailed above for the dried fibrin ELISA assay, the only variations being the method of target immobilization and the omission of HSA from binding and wash buffers. A screen against DD(E) acted as a further confirmation of fibrin binding activity. An ELISA screen against fibrinogen (immobilized to the plate by the biotin/streptavidin protocol used for DD(E)) was a check against fibrinogen binding and confirmed that the negative selection procedure detailed in Example 2 had been effective. Finally, ELISAs to assay binding to immobilized HSA (passively bound to the polystyrene plate) and a target-free microtiter plate were controls to eliminate phage that bound promiscuously or nonspecifically.

fibrinogen = target: T3, fibrinogen (UniProt P02671 20-629; P02675 31-491; P02679 27-437, limits assumed); test: phage ELISA on immobilised fibrinogen
T3 sequence (looked up) 1: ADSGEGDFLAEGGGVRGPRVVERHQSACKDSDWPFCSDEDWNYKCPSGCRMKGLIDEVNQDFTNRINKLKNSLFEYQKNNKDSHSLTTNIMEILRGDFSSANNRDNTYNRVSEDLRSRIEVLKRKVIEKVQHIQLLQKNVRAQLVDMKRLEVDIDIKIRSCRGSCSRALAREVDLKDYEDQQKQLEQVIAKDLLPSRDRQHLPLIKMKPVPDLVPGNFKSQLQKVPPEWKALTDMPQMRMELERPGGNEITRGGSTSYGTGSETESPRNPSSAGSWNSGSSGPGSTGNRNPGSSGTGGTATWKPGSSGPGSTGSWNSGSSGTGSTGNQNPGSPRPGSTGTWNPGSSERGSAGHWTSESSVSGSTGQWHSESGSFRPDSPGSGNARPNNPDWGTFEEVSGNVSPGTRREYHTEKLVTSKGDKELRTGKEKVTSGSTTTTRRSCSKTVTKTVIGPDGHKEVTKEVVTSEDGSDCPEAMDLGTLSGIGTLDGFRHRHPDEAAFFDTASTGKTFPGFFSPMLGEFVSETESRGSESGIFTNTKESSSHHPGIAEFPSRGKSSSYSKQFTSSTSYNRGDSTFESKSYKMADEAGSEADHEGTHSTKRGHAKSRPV
T3 sequence (looked up) 2: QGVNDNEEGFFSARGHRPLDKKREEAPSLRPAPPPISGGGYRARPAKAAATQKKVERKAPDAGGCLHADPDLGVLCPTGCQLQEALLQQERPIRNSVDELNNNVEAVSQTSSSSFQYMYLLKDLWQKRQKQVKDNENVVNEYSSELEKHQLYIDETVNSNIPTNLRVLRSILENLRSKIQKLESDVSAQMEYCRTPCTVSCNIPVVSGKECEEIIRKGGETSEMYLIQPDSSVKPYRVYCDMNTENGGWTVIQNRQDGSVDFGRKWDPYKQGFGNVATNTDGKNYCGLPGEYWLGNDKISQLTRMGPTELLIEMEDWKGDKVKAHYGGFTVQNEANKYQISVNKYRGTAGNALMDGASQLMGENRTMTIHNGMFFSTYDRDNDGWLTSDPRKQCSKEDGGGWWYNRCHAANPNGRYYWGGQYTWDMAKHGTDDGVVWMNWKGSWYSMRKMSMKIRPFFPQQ
T3 sequence (looked up) 3: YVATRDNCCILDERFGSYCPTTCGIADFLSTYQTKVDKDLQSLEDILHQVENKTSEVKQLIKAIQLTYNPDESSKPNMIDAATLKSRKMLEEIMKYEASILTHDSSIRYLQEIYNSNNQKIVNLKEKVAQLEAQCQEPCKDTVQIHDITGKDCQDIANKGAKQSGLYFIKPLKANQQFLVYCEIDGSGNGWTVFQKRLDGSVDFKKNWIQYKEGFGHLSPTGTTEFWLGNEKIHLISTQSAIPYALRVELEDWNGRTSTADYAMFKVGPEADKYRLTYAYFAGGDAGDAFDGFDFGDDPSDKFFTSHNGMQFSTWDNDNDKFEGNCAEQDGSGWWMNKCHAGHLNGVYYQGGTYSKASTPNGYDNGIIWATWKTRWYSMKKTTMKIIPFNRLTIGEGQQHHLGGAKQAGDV
Method: as §1, with “(˜10⁹” for “(˜10^9”, “CaCl₂,” for “CaCl2,”, “H₂O₂).” for “H2O2).”
as §2

Row | Molecule | relative binding (fibrin) | binding result (human serum albumin) | binding result (fibrinogen)
1 | 4 (YYGT; recurrent motif among synthetic fibrin binding peptides) [compound 4] | + + + | – | –
2 | 6 (HDCQYYGTCLH; synthetic fibrin binding peptide) [compound 6] | + + + | – | –
3 | B1 | – | no binding | no binding
4 | B2 | – | no binding | no binding
5 | B3 | – | no binding | –
6 | B4 | – | no binding | no binding
7 | B5 | – | no binding | no binding
8 | B6 | – | no binding | no binding
9 | B7 | – | no binding | no binding
10 | B8 | – | no binding | no binding
11 | B9 | – | no binding | no binding
12 | B10 | – | no binding | no binding
13 | B11 | – | no binding | no binding
14 | B12 | – | no binding | no binding
